Test results taken from the RNAGym collection of RNA variant scans (doi:10.1073/pnas.2313332121).

B1: TPR t1 (parent)
chain: GACCAAUCUGCCCUCAGAGCUCGAGAACAUCUUCGGAUGCAGAGGAGGCAGGCUUCGGUGGCGCGAUAGCGCCAACGUCCUCAACCUCCAAUGCAUCCCACCACAUGAUGAUGCCUGAAGAGCCUUGGUUUUUUG

Variants of: B1
Assay: polymerase ribozyme fitness, log enrichment relative to wild type (log ratio); higher = more active; in vitro selection for triplet polymerase activity
Procedure, shortened: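 Mutant libraries of each subunit of a heterodimeric triplet polymerase ribozyme were built by PCR and transcribed. Each library went through one round of in vitro selection in triplicate: annealing with biotinylated primer, partner subunit and triplets, frozen incubation at −7 °C, gel excision of extended constructs, streptavidin-bead capture and RT-PCR. Input and output libraries were Illumina-sequenced; only genotypes with ≥10 input reads and ≥1 read per output were kept. Fitness is log2(genotype enrichment/wild-type enrichment), using inverse-variance-weighted replicate averages.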

Variant	polymerase ribozyme fitness (log ratio)
G71C C99U	-4.28
C70G C82A G113C	-6.03
C70U A91U	-3.34
G71C C79U C101U	-0.546
G71C G93C	-1.98
G71U C97U	-0.285
C70U C88G U132C	-1.25
G71C U92A A119U C124A	-3.83
C70U C104A	-2.32
C70U C102A G127A	-3.84
C70U U133G	-1.12
C70U U132C	-0.89
C70G G122A	-3.06
C70G G122U	-2.27
G71A C72U	-1.32
G71A C72A	-1.46
C70G G113A	-3.02
C70G G113C	-4
C70G A103G	-4.93
C70U C94U	-0.0504
G71A U78C	-0.782
G71U C99G	-8.12
C70G C79U	-3.08
G71A C124G	0.316

Variant	polymerase ribozyme fitness (log ratio)
C70U G113A	-1.39
C70G C104A	-4.9
C70G A111U G117U A121U	-6.12
G71C U81A U109A	-6.73
G71A C73G G110A	-7.06
G71C U87A	-2.35
G71C C80U	-4.42
C70U U81C C99A U112A U125C	-6.54
C70U C94G A95G	-1.78
C70G C82U	-3.14
C70G C82A	-2.48
C70G C123U	-0.882
C70U C82U G93U	-1.52
C70U G77U C94A U116C A121C	-2.35
G71U C94G	-1.13
G71U C94A	-1.14
G71C A84U C94U	-1.84
C70U C86U G117A	-2.35
C70U G110U G135U	-3.77
C70U A95C U109A	-7.47
C70G U78A G93C	-2.76
G71A C79U C123U	1.66
C70U U81A	-3.3
G71A C99U C115A U129C G135U	-5.53

Variant	polymerase ribozyme fitness (log ratio)
G71U C86U	-0.637
C70U C72A C79U G110A	-2.38
G71C G93A C102A	-5.09
G71U C86U C102U	-2.63
C70U U87C C89A G120C	-2.9
G71A U129A	-1.76
C70U A121U	0.918
C70U A121G	-0.18
G71C A95U A111G C123U	-3.04
G71U C115A	1.51
G71U A105U	-2.22
C70U C99A A121G	-5.54
C70U C85G	-2.33
G71U C99U C115A	-2.82
C70G G93U	-3.28
C70A U92A A95U A111C G113C	-6.14
G71C G117A	-1.82
C70G U92C C123A	-5.06
G71A G113U	-3.89
G71A G113A	-1.22
C70U C86U	-1.4
C70U C86A	-1.13
C70U C86G	-1.54
C70U U87G	-0.364

Variant	polymerase ribozyme fitness (log ratio)
G71A U81G A83U	-6.59
G71C A118U C124G	0.835
C70A U87A	-1.22
G71C C115A	-1.07
C70U C72G U92A A108U U112C G113A A121G	-6.12
C70G	-2.49
C70U	-0.414
C70G U78C	-2.66
G71A C79G C124G U125A	-3.71
G71C U87G C98U G113C	-4.17
G71C A108G	-2.34
C70G A74U	-4.98
C70U A95U C124A	-2.31
C70U U81A U116G U125A	-5.57
G71C U132A	-0.602
C70A U126G	-3.42
C70A U126C	-2.02
G71U C104A U126C	-3.21
C70A U81A	-2.88
C70U U96G U125A	-1.32
G71C C88U A90C C115G	-4.94
C70U C79G C114A	-6.1
C70G C85A G93A C99G G110U	-6.29
C70U U109C	-3.68

Variant	polymerase ribozyme fitness (log ratio)
G71A U81A A84U	-2.93
G71C C102G C114U C115U G120C	-5.82
C70U U131G	-2.36
G71C C82A A100U G120U	-1.87
G71C C85A G117A	-2.67
G71A C73U C101A U132A	-2.2
C70G A100C C123A	-4.49
C70U C89A A90G U92A	-6.08
G71C A118U	-0.826
C70G A118U	-1.64
G71U G77C C89U G128C	-4.14
G71A C85A	-2.44
G71A C85G	-2.38
G71C C85A C101U A105C	-5.59
C70U C89U	-1.12
C70U C89A	-2.09
G71A G135A	-1.21
G71A A91G	-2.18
G71U C72G C123A	-2.68
C70G C85U	-3.79
C70U U126C	-0.89
C70U U126G	-3.3
G71A A111C A118U	-0.257
G71A C94A	-2.86

Variant	polymerase ribozyme fitness (log ratio)
C70U A111C	-0.279
C70U A111U	-4.03
G71U C98U	-2.33
G71C G122A	-2.06
G71A C80U	-2.57
C70U G110A	-1.77
C70G C124A G127U U132C	-0.524
C70U C72U	0.27
C70U G120C	0.206
C70U G120A	0.259
C70G U112G U125C	-3.92
G71A C86U	0.0346
G71A C86A	-1.85
G71A A90C G120A	-1.97
C70U U106A U109G	-4.62
C70U C76U G113C C123A	-5.89
G71A U125A	-0.783
G71C C94U	-3.04
C70G A83G U112C	-3.8
G71U C80G G107U G117A	-6.69
C70U A91U G113A	-2.99
G71U C101U C115A	-0.712
C70U C76G G77A G113C	-3.85
G71U A119U	-0.434

Variant	polymerase ribozyme fitness (log ratio)
C70U C102G	-6.87
C70G A121G	-0.69
C70G A121U	-0.929
G71C U112G	-1.66
C70G G120U	-2.36
C70G G120A	-1.34
G71A U78C C114G	-5.04
G71A C104A U129A	-4.5
C70U U87G G120C	1.04
G71A U92A C99G G120C	-7.51
C70U G127C	-2.15
G71A C82A C89U	-1.01
C70U U96C C99U C102U	-6.59
C70G U78C G113A A121G	-2.79
C70G A111G	-3.21
C70U C94U U112A	0.254
G71A G107A C114U	-4.4
G71C C114A G127U	-5.17
G71C A121G	0.226
C70U C82U	-1.59
G71A C79A C85U	-2.89
C70U U78C A105U G120C U130A	-3.59
G71U C76G	-2.91
